T1: HCoV-HKU1 spike antigens (bead panel) (HCoV-HKU1, UniProt Q5MQD0 13-1300)
T1 sequence: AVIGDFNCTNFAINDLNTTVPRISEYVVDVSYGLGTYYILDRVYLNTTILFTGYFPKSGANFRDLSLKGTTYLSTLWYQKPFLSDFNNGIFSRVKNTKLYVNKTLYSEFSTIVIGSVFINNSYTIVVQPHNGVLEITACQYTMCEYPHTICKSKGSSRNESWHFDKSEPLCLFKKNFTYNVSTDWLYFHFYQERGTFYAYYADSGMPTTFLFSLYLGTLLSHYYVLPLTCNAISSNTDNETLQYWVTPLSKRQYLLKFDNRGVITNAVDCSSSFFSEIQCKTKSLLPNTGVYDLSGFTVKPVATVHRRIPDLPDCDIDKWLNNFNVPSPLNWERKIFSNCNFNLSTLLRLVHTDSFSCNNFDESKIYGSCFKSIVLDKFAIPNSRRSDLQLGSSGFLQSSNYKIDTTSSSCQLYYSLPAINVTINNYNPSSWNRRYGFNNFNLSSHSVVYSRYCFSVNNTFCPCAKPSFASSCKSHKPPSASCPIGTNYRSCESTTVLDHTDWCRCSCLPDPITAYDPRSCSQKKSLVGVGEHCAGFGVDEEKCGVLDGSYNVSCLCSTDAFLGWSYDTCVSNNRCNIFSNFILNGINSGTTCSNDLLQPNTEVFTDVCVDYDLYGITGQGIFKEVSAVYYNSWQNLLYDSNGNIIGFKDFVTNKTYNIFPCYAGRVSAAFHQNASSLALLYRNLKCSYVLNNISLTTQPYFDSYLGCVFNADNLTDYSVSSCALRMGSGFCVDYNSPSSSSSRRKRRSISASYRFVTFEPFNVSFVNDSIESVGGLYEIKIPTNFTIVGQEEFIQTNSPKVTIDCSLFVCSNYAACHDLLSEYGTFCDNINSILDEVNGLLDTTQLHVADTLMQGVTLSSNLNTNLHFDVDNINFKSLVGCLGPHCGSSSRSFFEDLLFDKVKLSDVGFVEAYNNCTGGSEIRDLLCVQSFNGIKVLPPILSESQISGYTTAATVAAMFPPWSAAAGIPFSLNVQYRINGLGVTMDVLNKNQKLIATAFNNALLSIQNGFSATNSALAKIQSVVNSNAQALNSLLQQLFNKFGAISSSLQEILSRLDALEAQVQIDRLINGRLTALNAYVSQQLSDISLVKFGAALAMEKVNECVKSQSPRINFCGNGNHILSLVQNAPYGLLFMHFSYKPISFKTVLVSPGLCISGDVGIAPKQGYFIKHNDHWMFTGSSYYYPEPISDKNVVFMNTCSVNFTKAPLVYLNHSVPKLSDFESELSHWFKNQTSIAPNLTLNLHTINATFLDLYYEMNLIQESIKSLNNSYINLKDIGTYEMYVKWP

T2: HCoV-229E spike antigens (bead panel) (HCoV-229E, UniProt P15423 16-1115)
T2 sequence: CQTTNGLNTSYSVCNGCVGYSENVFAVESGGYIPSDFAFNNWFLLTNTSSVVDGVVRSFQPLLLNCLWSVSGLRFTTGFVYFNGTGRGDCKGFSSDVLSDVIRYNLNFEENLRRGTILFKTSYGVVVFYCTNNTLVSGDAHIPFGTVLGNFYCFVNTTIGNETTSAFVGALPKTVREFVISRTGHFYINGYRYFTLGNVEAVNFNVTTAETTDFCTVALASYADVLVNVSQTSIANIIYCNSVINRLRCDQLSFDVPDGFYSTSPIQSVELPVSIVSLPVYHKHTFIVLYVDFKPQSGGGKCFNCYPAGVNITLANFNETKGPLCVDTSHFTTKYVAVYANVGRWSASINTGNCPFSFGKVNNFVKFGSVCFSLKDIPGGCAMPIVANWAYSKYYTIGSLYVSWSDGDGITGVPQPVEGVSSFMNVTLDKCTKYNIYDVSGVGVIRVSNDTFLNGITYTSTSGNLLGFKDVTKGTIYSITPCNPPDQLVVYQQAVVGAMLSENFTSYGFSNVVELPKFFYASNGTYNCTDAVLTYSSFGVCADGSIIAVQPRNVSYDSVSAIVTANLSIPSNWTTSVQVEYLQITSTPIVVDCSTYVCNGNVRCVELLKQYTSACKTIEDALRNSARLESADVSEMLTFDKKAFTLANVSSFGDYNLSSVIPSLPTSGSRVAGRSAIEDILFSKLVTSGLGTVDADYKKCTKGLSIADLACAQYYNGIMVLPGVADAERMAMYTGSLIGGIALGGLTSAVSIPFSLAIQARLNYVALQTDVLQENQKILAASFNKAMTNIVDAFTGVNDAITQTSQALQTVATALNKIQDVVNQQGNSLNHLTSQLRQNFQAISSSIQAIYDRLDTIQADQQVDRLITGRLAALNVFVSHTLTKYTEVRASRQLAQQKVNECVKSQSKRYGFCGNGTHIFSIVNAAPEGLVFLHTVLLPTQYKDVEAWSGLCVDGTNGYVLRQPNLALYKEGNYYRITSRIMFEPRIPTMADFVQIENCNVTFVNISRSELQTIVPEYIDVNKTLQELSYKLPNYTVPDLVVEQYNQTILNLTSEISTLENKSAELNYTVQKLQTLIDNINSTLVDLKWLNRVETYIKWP

B1: COV_2123 (antibody, V domains shown)
VH: EVQLVESGGGVVQPGRSLRLSCAASGFTFSSYAMHWVRQAPGKGLEWVAVLSYDGSNKYNADSVKGRFTISRDNSKNTLYLQMNSLRVEDTAMYYCARDGVSVTMVRGVIGPLCDYWGQGTLVTVSS
VL: not shown
notes: human IgG1
B2: COV_2008 (antibody, V domains shown)
VH: QVRVVQSGAEVKNPGASVKVSCKVSGYTLTELSIHWVRQAPGNGLEWMGGFDPEDGETIYAQKFQGRVTMTEDTSTDTAYMELSSLRSDDTAVYYCATAGAITGTPRNFYYYYGMDVWGQGTTVTVSS
VL: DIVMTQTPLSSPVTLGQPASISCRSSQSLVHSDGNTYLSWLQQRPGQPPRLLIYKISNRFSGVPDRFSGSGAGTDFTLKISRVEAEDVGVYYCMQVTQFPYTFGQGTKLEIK
notes: human IgG1
B3: COV_1172 (antibody, V domains shown)
VH: QVQLQESGPGLVKPSETLSLTCTVSGGSIRSYYWSWIRQPPGKGLEWIGYIYYSGSTNYSPSLKSRVTISVDTSKNQFSLKLNSVTAADTAVYYCARRGLGYCSGDSCSNAFDIWGQGTMVTVSS
VL: DIQMTQSPSSLSASVGDRVTITCRASQSISSYLNWYQQKPGRAPELLIYDASSLQSGVPSGFSGSGSGTDFTLTISSLQPEDFATYYCQQSYSTPFTFGPGTKVDIKR
notes: human IgG1
B4: COV_2004 (antibody, V domains shown)
VH: QVQLVQSGAEVKKPGASVKVSCKASGYTFTGYYMHWVRQAPGQGLEWMGRINPSSGGTNYAQKFQGRVTMTRDTSISTAYMELSSLRSDDTAVYYCATDGDDGENWFDPWGQGTLVIVSS
VL: DIQMTQSPSSLSASVGDRVTITCRASQGISSWLAWYQQKPEKAPKSLIYAASSLQSGVPSRFSGSGSGTDFTLTISSLQPEDFATYYCQQYNSYPYTFGQGTKLEIK
notes: human IgG1
B5: COV_1170 (antibody, V domains shown)
VH: QVQLVESGGGVVQPGRSLRLSCAASGFTFSTYAMHWVRQAPGKGLEWVALISYDGSNKYYADSVKGRFTISRDNSKNTLDLQMNSLRAEDTAVYYCARSLGGYRTGFDYWGQGTLVTVSS
VL: DIQLTQSPSFLSASVGDRVTITCRASQGISSYLAWYQQKPGKAPKLLIYAASTLQSGVPSRFSGSGSGTEFTLTISSLQPEDFATYYCQQLNSYPPFTFGPGTKVDIKR
notes: human IgG1
B6: COV_2048 (antibody, V domains shown)
VH: QVQLQESGPGLVKPSETLSLTCTVSGGSISNTSYYWGWIRQPPGKGLEWIGSIYRSGSTYYNPSLKSRVTISIDTSKNQFTLKLSSVTAADTAVYYCARDYYGDYSAKPMEYWGQGTLVTVSS
VL: QSALTQPRSVSGSPGQSVTISCTGTSSDVGGYNYVSWYQQHPGKAPKLLIYDVSKRPSGVPDRFSGSKSGNTASLTISGLQAEDEADYYCCSYAGSYVVFGGGAKLTVLG
notes: human IgG1
B7: COV_1144 (antibody, V domains shown)
VH: EVQLVESGGGLVQPGGSLRLSCAASGFTFRSFWMSWVRQAPGKGLEWVANIKEDASEKHYVDPVKGRFTISRDNAKNSLYLQLNSLRAEDMAVYYCARVGRGYCTNGLCYTAFEYWGQGTLVTVSS
VL: DIQMTQSPSSLSASVGDRVTITCRTSQSISNYLNWYQQKPGKAPKLLIYAASSLQSGVPSRFSGSGSGTDFTLTISSLQPEDFATYYCQQSYSTAWTFGQGTKVEIRR
notes: human IgG1
B8: COV_2056 (SEQ ID NO:792/797) (antibody, V domains shown)
VH: EVQLVESGGGVVQPGRSLRLSCAASGFTFSIYGMHWVRQAPGKGLEWVALISYDGTNKYYADSVKGRFSISRDDSKNTLYLQMNSLRPEDTAVYYCAKVLMMGDSSGFSLGDAFDIWGQGTMVTVSS
VL: DIQMTQSPSSVSASVGDRVTITCRASQGISNWLAWYQQKPGKAPKLLIYAASSLQSGVPSRFSGSVSGTDFTLTISSLQPEDFATYYCQQANSFPLTFGGGTKVDIKR
B9: COV_1149 (antibody, V domains shown)
VH: QVQLVESGGGVVQPGRSLRLSCAASGFTFSSYGMHWVRQAPGKGLEWVAVISYDGSNKYYADSVKGRFTISRDNSKNTLYLQMNSLRAEDTAVYYCAKTGGGYSYGLGNVWGQGTLVTVSS
VL: QSALTQPASVSGSPGQSITISCTGTSSDVGGYNYVSWYQQHPGKAPKLMIYDVSNRPSGVSNRFSGSKSGNTASLTISGLQAEDEADYYCSSYTSSSTLVVFGGGTKLTVLG
notes: human IgG1
B10: COV_1201 (antibody, V domains shown)
VH: QVQLVQSGAEVKKPGASMKVSCKASGYTFTGYYIHWVRQAPGQGLEWMGRINPNSGGTNYAQKFQGRVTMTRDTSISTAYMELSRLRSDDTAVYYCAREYYYVPYGMDVWGQGTTVTVSS
VL: QSALTQPASVSGSPGQSITISCTGTSSDVGGYNFVSWYQHHPGKAPKLMIYEVSNRPSGVSNRFSGSKSGNTASLTISGLQAEDEADYYCSSYTSSSTYVFGTGTKVTVL
notes: human IgG1
B11: COV_1151 (antibody, V domains shown)
VH: QVQVQQWGAGLLKPSETLSLTCAVYGGSFNNYYWSWIRQPPGKGLEWIGEINHSGSTNYNPSLMSRVTISVDTSKNQFSLKLTSVTAADTAVYFCARGLPVTTFFSSYYGMDVWGQGTTVTVSS
VL: EIVLTQSPGTLSLSPGERATLSCRASQSVSRTYLAWYQQKPGQAPRLLIYGASSRATGIPDRFSGSGSGTDFTLTISRLEPEDFAVYYCQHYGSSPWTFGQGTKVEIRR
notes: human IgG1
B12: COV_1166 (antibody, V domains shown)
VH: EVQLVESGGGLVQPGGSLRLSCAVSGFTFRSFWMSWVRQTPGKGLEWVANIKEDGSEKYYVDSVKGRFTISRDNAKNSLYLQMNSLRAEDTAVYYCAREGRWELLGFAFDIWGQGTMVTVSS
VL: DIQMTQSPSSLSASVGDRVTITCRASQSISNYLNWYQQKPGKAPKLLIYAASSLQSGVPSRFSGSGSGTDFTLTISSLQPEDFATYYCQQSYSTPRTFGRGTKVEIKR
notes: human IgG1
B13: COV_2035 (antibody, V domains shown)
VH: QVQLVQSGAEVKKPGASVKVSCKVSGYTLPELSIHWVRQAPGKGLEWLGGFDPEDGKIIYAQKFQGRVTMTEDTSTDTAYMELSSLRSEDTAVYYCATSPAVVERGWFDPWGQGTLVTVSS
VL: QSALTQPPSASGSPGQSVTISCTGTSSDVGGYNYVSWYQQHPGKAPKLMIYEVSKRPSGVPDRFSGSKSGNMASLTVSGLQAEDEANYYCSSYAGSKRVFGGGTKLTVL
notes: human IgG1

We go through 13 molecules from patent US20240101645A1 (HENRY M JACKSON FOUNDATION FOR THE ADVANCEMENT OF MILITARY …, published 2024).

The first experiment addresses T1, HCoV-HKU1 spike antigens (bead panel). In words: multiplex bead assay.
For B1, the binding result is on record as “no binding”.
With B2, the binding result is listed as “no binding”.
B3: the binding result is “no binding”.
In the case of B4, the binding result is given as “no binding”.
On the same count and under the same terms, with B5 the entry was “no binding”; with B6, “no binding”; with B7, “no binding”.
On to B8, for which the binding result is on record as “no binding”.
As to B9, the binding result is recorded as “no binding”.
B10: the binding result was “no binding”.
For the molecule B11, the binding result is given as “no binding”.
As for B12, the binding result is reported as “no binding”.

In another experiment the target is T2, HCoV-229E spike antigens (bead panel). The experiment is described as follows: multiplex bead assay.
Consider B13, for which the binding result is on record as “no binding”.
The same measure, in the same setting: with B2 the entry was “no binding”; with B3, “no binding”; with B4, “no binding”.
B5: the binding result was “no binding”.
With B6, the binding result is “no binding”.
Regarding B7, the binding result is reported as “no binding”.
For the molecule B8, the binding result is “no binding”.
On the same count and under the same terms, in the case of B9 it was “no binding”.
The same measure, in the same setting: in the case of B10 it was “no binding”.
As for B11, the binding result is on record as “no binding”.
Turning to B12, the binding result is “no binding”.
